Reference: patent US20120121603A1 (THERACLONE SCIENCES, published 2012)

Biological target: T1, M2 protein expressed on the surface of PR8-infected MDCK cells (Influenza A virus A/Puerto Rico/8/1932 …, UniProt P06821 1-97)
T1 construct: whole, on cells
Assay: FMAT, crude supernatant on PR8-infected MDCK cells

T1 sequence (P06821 whole entry): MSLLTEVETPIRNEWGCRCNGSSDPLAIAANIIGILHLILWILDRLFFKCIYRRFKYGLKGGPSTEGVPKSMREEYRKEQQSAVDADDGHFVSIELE

B1: 23K12 (antibody, V domains shown)
VH: EVQLVESGGGLVQPGGSLRISCAASGFTVSSNYMSWVRQAPGKGLEWVSVIYSGGSTYYADSVKGRFSFSRDNSKNTVFLQMNSLRAEDTAVYYCARCLSRMRGYGLDVWGQGTTVTVS
VL: DIQMTQSPSSLSASVGDRVTITCRTSQSISSYLNWYQQKPGKAPKLLIYAASSLQSGVPSRFSGSGSGTDFTLTISGLQPEDFATYYCQQSYSMPAFGQGTKLEIK
  binding result: binds
